# From IntAct's records for PubMed 8114715
# Key:
# lck_human LCK [1] = target: lck_human LCK (UniProt P06239)
# lck_human LCK [2] = target: lck_human LCK (UniProt P06239); remark: listed apart in the source
# lck_human LCK [3] = target: lck_human LCK (UniProt P06239); remark: listed apart in the source
# Sequence of lck_human LCK (P06239 whole entry, looked up): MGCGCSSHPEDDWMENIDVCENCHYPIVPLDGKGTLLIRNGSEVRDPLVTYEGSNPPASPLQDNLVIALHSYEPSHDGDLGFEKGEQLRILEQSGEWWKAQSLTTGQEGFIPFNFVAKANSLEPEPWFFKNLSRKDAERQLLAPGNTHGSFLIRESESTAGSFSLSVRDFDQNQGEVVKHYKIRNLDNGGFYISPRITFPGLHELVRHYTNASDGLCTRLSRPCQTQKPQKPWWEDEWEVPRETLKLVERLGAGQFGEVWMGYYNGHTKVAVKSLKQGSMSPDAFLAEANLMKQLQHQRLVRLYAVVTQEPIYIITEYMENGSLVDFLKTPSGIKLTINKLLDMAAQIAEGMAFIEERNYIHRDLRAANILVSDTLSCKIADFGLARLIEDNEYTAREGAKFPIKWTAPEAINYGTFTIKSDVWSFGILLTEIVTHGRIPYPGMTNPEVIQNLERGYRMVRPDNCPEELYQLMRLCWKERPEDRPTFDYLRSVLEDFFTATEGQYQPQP
# Sequence of Tyrosine-protein phosphatase non-receptor type 6 (Homo sapiens), P29350 Y564F (P29350 whole entry Y564F): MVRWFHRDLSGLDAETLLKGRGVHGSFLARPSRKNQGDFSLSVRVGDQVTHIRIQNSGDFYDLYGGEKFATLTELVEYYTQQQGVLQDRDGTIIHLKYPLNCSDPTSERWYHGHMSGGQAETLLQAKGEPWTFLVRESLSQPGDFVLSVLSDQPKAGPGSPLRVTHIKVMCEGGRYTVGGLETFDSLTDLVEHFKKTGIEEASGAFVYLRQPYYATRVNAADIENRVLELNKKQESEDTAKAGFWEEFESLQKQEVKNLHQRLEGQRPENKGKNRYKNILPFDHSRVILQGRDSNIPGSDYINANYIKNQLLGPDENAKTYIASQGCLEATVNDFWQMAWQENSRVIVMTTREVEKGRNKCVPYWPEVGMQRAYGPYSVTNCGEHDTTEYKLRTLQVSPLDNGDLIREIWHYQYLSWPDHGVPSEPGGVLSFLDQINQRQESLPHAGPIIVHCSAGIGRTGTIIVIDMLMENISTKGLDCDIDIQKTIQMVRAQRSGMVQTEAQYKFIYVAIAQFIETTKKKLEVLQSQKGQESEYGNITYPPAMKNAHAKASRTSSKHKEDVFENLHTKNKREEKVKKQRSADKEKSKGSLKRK
# Sequence of Tyrosine-protein phosphatase non-receptor type 6 (Homo sapiens), P29350 Y541F (P29350 whole entry Y541F): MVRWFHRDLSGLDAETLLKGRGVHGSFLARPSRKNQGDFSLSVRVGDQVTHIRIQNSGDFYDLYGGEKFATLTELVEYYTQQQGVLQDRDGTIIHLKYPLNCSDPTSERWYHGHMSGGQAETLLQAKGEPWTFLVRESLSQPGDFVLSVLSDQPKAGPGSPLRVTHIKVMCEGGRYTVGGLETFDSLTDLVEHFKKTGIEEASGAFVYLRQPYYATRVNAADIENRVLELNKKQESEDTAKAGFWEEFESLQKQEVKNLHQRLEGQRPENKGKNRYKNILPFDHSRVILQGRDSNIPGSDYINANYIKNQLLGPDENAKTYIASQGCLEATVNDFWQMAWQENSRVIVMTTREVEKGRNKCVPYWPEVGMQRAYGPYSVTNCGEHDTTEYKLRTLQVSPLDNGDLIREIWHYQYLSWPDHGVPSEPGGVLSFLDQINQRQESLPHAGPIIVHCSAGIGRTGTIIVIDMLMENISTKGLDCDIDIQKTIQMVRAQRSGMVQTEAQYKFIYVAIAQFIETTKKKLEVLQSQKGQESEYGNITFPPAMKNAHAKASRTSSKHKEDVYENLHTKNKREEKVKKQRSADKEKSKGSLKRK
# Sequence of Tyrosine-protein phosphatase non-receptor type 6 (Homo sapiens), P29350 Y536F (P29350 whole entry Y536F): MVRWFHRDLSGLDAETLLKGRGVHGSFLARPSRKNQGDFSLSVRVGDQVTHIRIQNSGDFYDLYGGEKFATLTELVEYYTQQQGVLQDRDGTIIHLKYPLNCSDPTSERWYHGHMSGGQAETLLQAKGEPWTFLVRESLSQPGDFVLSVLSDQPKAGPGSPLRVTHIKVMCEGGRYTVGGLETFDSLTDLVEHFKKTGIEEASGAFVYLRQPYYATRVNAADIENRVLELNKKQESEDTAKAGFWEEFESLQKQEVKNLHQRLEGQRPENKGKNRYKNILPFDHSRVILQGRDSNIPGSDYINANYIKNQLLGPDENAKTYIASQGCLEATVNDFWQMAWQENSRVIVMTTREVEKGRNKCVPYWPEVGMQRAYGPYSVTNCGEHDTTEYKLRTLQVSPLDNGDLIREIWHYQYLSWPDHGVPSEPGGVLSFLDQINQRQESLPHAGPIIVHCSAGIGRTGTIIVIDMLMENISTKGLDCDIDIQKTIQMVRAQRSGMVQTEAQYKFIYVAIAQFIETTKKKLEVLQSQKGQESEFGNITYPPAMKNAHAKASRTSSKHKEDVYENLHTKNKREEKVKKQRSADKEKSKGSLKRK
substance,measurement,setting,value
"Tyrosine-protein phosphatase non-receptor type 6 (Homo sapiens), P29350 Y564F",effect of a mutation on the interaction,lck_human LCK [1],decreasing interaction
"Tyrosine-protein phosphatase non-receptor type 6 (Homo sapiens), P29350 Y541F",effect of a mutation on the interaction,lck_human LCK [2],decreasing interaction
"Tyrosine-protein phosphatase non-receptor type 6 (Homo sapiens), P29350 Y536F",effect of a mutation on the interaction,lck_human LCK [3],decreasing interaction
